# Laboratory results published in publication PMC7360590, “Structural basis of SALM3 dimerization and synaptic adhesion complex formation with PTPσ” (Scientific Reports, 2020).
# T1: PTPσ-Fc fusion protein, B0V2N1
# T1 chain: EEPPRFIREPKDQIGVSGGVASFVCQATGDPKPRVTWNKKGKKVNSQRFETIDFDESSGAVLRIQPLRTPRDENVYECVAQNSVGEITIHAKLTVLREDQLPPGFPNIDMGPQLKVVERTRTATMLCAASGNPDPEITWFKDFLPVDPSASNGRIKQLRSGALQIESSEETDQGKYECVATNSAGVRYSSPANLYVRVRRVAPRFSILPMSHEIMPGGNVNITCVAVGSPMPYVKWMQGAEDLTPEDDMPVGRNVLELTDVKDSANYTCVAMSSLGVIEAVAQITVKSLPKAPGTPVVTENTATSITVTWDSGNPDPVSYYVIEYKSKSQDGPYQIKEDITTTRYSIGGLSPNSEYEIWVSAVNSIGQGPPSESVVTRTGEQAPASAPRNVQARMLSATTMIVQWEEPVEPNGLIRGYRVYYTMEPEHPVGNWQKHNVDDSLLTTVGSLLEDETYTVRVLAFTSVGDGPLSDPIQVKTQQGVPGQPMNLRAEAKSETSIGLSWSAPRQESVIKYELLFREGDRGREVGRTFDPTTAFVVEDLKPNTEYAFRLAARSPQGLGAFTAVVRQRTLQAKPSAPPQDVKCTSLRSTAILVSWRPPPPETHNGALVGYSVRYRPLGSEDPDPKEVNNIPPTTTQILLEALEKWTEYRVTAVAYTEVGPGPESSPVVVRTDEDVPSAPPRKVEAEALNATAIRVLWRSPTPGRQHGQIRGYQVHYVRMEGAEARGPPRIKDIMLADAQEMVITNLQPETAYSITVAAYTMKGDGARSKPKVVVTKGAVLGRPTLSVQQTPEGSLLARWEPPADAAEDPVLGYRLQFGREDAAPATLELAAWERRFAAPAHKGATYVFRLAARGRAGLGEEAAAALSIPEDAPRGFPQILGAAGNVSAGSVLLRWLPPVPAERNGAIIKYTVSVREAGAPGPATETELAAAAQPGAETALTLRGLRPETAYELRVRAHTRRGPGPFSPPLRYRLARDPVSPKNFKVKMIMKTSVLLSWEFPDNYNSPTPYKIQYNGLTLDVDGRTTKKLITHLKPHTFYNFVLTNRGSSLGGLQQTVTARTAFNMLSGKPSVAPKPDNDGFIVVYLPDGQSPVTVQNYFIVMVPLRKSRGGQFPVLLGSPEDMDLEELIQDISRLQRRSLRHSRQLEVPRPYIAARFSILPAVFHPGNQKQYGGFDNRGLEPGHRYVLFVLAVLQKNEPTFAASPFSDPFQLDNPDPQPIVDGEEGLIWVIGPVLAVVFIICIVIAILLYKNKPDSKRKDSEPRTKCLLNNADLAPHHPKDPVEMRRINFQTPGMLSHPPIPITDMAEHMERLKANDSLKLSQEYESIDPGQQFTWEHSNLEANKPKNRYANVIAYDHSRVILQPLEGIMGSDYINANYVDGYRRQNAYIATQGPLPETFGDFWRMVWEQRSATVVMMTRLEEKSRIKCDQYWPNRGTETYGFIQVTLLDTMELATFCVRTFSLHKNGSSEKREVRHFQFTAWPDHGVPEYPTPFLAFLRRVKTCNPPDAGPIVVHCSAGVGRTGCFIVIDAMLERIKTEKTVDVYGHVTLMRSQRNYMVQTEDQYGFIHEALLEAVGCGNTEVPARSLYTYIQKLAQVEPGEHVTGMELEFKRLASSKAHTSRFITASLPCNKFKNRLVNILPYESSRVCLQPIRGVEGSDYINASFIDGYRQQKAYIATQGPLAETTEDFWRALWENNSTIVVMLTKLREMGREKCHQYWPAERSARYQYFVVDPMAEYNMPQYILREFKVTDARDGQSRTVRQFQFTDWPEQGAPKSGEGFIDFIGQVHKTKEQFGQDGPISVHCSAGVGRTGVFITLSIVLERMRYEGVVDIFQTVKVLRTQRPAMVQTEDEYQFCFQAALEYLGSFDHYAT
# Legend:
# [1] = target: purified SALM3 Thr354Arg-Glu359Ala mutant protein (mouse); assay: not stated; oligomeric state in solution of purified SALM3 double mutants against the wild type (Supplementary Fig. S8)
# [2] = target: purified SALM3 Leu282Arg-Arg285Ala mutant protein (mouse); assay: as above
# [3] = target: T1, PTPσ-Fc fusion protein, B0V2N1; assay: in-cell western cell binding assay; details: chain shown with the change; 150 nM PTPσ-Fc; SALM3 expressed on the surface of HEK293T cells; parent: est. 49000; read off a plot
# [4] = target: the molecule itself; assay: SEC-MALS; SEC–MALLS; Superdex 75 10/300, 0.5 ml/min, 20 mM Tris pH 7.4, 150 mM NaCl; 100 µL injected at 1.5 mg/ml (conditions told for the LRR construct)
response [3],Molecule,further results
4000,"mouse SALM3 LRR-Ig-Fn (residues 17–510), wild type, displayed on HEK293T cells, Q80XU8 R285A; L305A (protein) CPLPCVCQNLSESLSTLCAHRGLLFVPPNVDRRTVELRLADNFIQALGPPDFRNMTGLVDLTLSRNAITRIGARSFGDLESLRSLHLDGNRLVELGSSSLRGPVNLQHLILSGNQLGRIAPGAFDDFLDSLEDLDVSYNNLRQVPWAGIGSMPALHTLNLDHNLIDALPPGVFAQLSQLSRLDLTSNRLATLAPDPLFSRGRDAEASPSPLVLSFSGNPLHCNCELLWLRRLARPDDLETCASPPTLAGRYFWAVPEGEFSCEPPLIAAHTQRLWVLEGQRATLRCRAAGDPVPTMHWVGPDDRLVGNSSRAWAFPNGTLEIGVTGAGDAGAYTCIATNPAGEATARVELRVLALPHGGNTSAEGGRPGPSDIAASARTAAEGEGTLESEPAVQVTEVTATSGLVSWGLGRPADPVWMFQIQYNSSEDETLIYRIVPASSHHFLLKHLVPGADYDLCLLALSPAAGPSDLTATRLLGCAHFSTLPATPLCHALQ",–
2500,"mouse SALM3 LRR-Ig-Fn (residues 17–510), wild type, displayed on HEK293T cells, Q80XU8 R247A (protein) CPLPCVCQNLSESLSTLCAHRGLLFVPPNVDRRTVELRLADNFIQALGPPDFRNMTGLVDLTLSRNAITRIGARSFGDLESLRSLHLDGNRLVELGSSSLRGPVNLQHLILSGNQLGRIAPGAFDDFLDSLEDLDVSYNNLRQVPWAGIGSMPALHTLNLDHNLIDALPPGVFAQLSQLSRLDLTSNRLATLAPDPLFSRGRDAEASPSPLVLSFSGNPLHCNCELLWLRALARPDDLETCASPPTLAGRYFWAVPEGEFSCEPPLIARHTQRLWVLEGQRATLRCRALGDPVPTMHWVGPDDRLVGNSSRAWAFPNGTLEIGVTGAGDAGAYTCIATNPAGEATARVELRVLALPHGGNTSAEGGRPGPSDIAASARTAAEGEGTLESEPAVQVTEVTATSGLVSWGLGRPADPVWMFQIQYNSSEDETLIYRIVPASSHHFLLKHLVPGADYDLCLLALSPAAGPSDLTATRLLGCAHFSTLPATPLCHALQ",–

# Continued, molecule first:
Molecule,response [3],further results
purified SALM3 Thr354Arg-Glu359Ala mutant protein (domain or fragment),–,stoichiometry N [1]: 2
purified SALM3 Leu282Arg-Arg285Ala mutant protein (domain or fragment),–,stoichiometry N [2]: 2
"mouse SALM3 LRR-Ig-Fn (residues 17–510), wild type, displayed on HEK293T cells, Q80XU8 L282R; R285A (protein) CPLPCVCQNLSESLSTLCAHRGLLFVPPNVDRRTVELRLADNFIQALGPPDFRNMTGLVDLTLSRNAITRIGARSFGDLESLRSLHLDGNRLVELGSSSLRGPVNLQHLILSGNQLGRIAPGAFDDFLDSLEDLDVSYNNLRQVPWAGIGSMPALHTLNLDHNLIDALPPGVFAQLSQLSRLDLTSNRLATLAPDPLFSRGRDAEASPSPLVLSFSGNPLHCNCELLWLRRLARPDDLETCASPPTLAGRYFWAVPEGEFSCEPPRIAAHTQRLWVLEGQRATLRCRALGDPVPTMHWVGPDDRLVGNSSRAWAFPNGTLEIGVTGAGDAGAYTCIATNPAGEATARVELRVLALPHGGNTSAEGGRPGPSDIAASARTAAEGEGTLESEPAVQVTEVTATSGLVSWGLGRPADPVWMFQIQYNSSEDETLIYRIVPASSHHFLLKHLVPGADYDLCLLALSPAAGPSDLTATRLLGCAHFSTLPATPLCHALQ",2500,–
"mouse SALM3 LRR-Ig-Fn (residues 17–510), wild type, displayed on HEK293T cells, Q80XU8 R107S; Q131A (protein) CPLPCVCQNLSESLSTLCAHRGLLFVPPNVDRRTVELRLADNFIQALGPPDFRNMTGLVDLTLSRNAITRIGARSFGDLESLRSLHLDGNSLVELGSSSLRGPVNLQHLILSGNALGRIAPGAFDDFLDSLEDLDVSYNNLRQVPWAGIGSMPALHTLNLDHNLIDALPPGVFAQLSQLSRLDLTSNRLATLAPDPLFSRGRDAEASPSPLVLSFSGNPLHCNCELLWLRRLARPDDLETCASPPTLAGRYFWAVPEGEFSCEPPLIARHTQRLWVLEGQRATLRCRALGDPVPTMHWVGPDDRLVGNSSRAWAFPNGTLEIGVTGAGDAGAYTCIATNPAGEATARVELRVLALPHGGNTSAEGGRPGPSDIAASARTAAEGEGTLESEPAVQVTEVTATSGLVSWGLGRPADPVWMFQIQYNSSEDETLIYRIVPASSHHFLLKHLVPGADYDLCLLALSPAAGPSDLTATRLLGCAHFSTLPATPLCHALQ",2800,–
"mouse SALM3 LRR-Ig-Fn (residues 17–510), wild type, displayed on HEK293T cells, Q80XU8 L321A; H313A (protein) CPLPCVCQNLSESLSTLCAHRGLLFVPPNVDRRTVELRLADNFIQALGPPDFRNMTGLVDLTLSRNAITRIGARSFGDLESLRSLHLDGNRLVELGSSSLRGPVNLQHLILSGNQLGRIAPGAFDDFLDSLEDLDVSYNNLRQVPWAGIGSMPALHTLNLDHNLIDALPPGVFAQLSQLSRLDLTSNRLATLAPDPLFSRGRDAEASPSPLVLSFSGNPLHCNCELLWLRRLARPDDLETCASPPTLAGRYFWAVPEGEFSCEPPLIARHTQRLWVLEGQRATLRCRALGDPVPTMAWVGPDDRAVGNSSRAWAFPNGTLEIGVTGAGDAGAYTCIATNPAGEATARVELRVLALPHGGNTSAEGGRPGPSDIAASARTAAEGEGTLESEPAVQVTEVTATSGLVSWGLGRPADPVWMFQIQYNSSEDETLIYRIVPASSHHFLLKHLVPGADYDLCLLALSPAAGPSDLTATRLLGCAHFSTLPATPLCHALQ",2800,–
"Mouse SALM3 LRR (residues 17–284) (domain or fragment, UniProt Q80XU8 17-284, looked up, N-glycan at Asn25 (partly visible in one monomer), SALM3 (LRFN4), mouse, LRR domain, residues 17-284; residues of the Prescission site may remain at the C-terminus after cleavage; also called SALM3 LRR domain; SALM3 LRR construct; not shown: Fc, C-terminal, cleaved) CPLPCVCQNLSESLSTLCAHRGLLFVPPNVDRRTVELRLADNFIQALGPPDFRNMTGLVDLTLSRNAITRIGARSFGDLESLRSLHLDGNRLVELGSSSLRGPVNLQHLILSGNQLGRIAPGAFDDFLDSLEDLDVSYNNLRQVPWAGIGSMPALHTLNLDHNLIDALPPGVFAQLSQLSRLDLTSNRLATLAPDPLFSRGRDAEASPSPLVLSFSGNPLHCNCELLWLRRLARPDDLETCASPPTLAGRYFWAVPEGEFSCEPPLIA",–,stoichiometry N [4]: 2
"SALM3 LRR-Ig (residues 17–367) (domain or fragment, mouse, UniProt Q80XU8 17-367, looked up, SALM3 (LRFN4), mouse, LRR and Ig domains, residues 17-367; also called SALM3 LRR-Ig construct; source: purified) CPLPCVCQNLSESLSTLCAHRGLLFVPPNVDRRTVELRLADNFIQALGPPDFRNMTGLVDLTLSRNAITRIGARSFGDLESLRSLHLDGNRLVELGSSSLRGPVNLQHLILSGNQLGRIAPGAFDDFLDSLEDLDVSYNNLRQVPWAGIGSMPALHTLNLDHNLIDALPPGVFAQLSQLSRLDLTSNRLATLAPDPLFSRGRDAEASPSPLVLSFSGNPLHCNCELLWLRRLARPDDLETCASPPTLAGRYFWAVPEGEFSCEPPLIARHTQRLWVLEGQRATLRCRALGDPVPTMHWVGPDDRLVGNSSRAWAFPNGTLEIGVTGAGDAGAYTCIATNPAGEATARVELR",–,stoichiometry N [4]: 2
